From PMC7335050, “Characterization of an alternative BAK-binding site for BH3 peptides” (Nature Communications, 2020) come the findings set out here.

The experiment addresses T1, BAKΔTM (human, UniProt Q16611 1-186).
T1 construct: BAK without the transmembrane segment, human, residues 1-186 of GenBank BC004431, in pET29b(+); Named His6-BAKΔTM in the liposome and cytochrome c assays; no tag removal is described; also called His6-BAKΔTM; WT BAKΔTM; source: E. coli BL21, purified (Ni2+-NTA-agarose, Superdex S200)
T1 sequence (looked up): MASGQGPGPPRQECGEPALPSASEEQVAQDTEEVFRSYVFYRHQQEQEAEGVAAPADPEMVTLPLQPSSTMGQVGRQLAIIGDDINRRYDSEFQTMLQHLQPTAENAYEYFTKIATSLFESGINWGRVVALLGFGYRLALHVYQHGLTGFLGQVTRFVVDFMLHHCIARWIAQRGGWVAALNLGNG
Description: SPR; BAKΔTM or mutants immobilised on a CM5 chip (Biacore T200; about 4000 RU in the mutant comparisons), BH3 peptides injected at 30 µl per min for 1 min, 25 °C, 10 mM HEPES pH 7.4, 150 mM NaCl, 0.05 mM EDTA, 0.005% polysorbate 20; steady-state analysis, approximate constants. Particulars: both partners purified. (In general: SPR reads the build-up and loss of mass on a sensor chip optically.)

Some results are limits rather than exact numbers.

HQAEVQIARKLQCIADQFHRLHVQQH [BMF BH3 peptide] displayed a Kd of less than 1000 nM.

As usually defined, the Kd is a measure of binding affinity in units of concentration. Read a low Kd as higher affinity.
